From US20190225669A1 (ACCELERON PHARMA, published 2019)
Like-named read-outs stand apart in the source and are kept apart here.

B2: BMP9 (ligand, UniProt Q9UK05 320-429, looked up)
chain: SAGAGSHCQKTSLRVNFEDIGWDSWIIAPKEYEAYECKGGCFFPLADDVTPTKHAIVQTLVHLKFPTKVGKACCVPTKLSPISVLYKDDMGVPTLKYHYEGMSVAECGCR
notes: also called GDF2

Tests used:
GDF6 = biological target: T1, GDF6 (UniProt Q6KF10 336-455, limits assumed); assay: Biacore SPR; kinetics indeterminate (transient)
T1 construct: also called BMP13
T1 sequence (looked up): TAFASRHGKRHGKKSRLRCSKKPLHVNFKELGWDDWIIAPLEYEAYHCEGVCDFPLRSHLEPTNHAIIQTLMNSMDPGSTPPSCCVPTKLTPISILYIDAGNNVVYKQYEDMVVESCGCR
Procedure: (§1) Ligands were injected and allowed to flow over the captured receptor protein.

activin B = biological target: T2, activin B (UniProt P09529 293-407); assay: Biacore SPR
T2 sequence (looked up): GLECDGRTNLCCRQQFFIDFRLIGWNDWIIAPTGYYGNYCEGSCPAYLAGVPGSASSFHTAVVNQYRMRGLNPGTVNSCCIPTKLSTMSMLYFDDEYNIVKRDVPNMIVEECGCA
Procedure: as §1

GDF8 = biological target: T3, GDF8 (UniProt O14793 267-375); assay: Biacore SPR
T3 construct: also called myostatin
T3 sequence (looked up): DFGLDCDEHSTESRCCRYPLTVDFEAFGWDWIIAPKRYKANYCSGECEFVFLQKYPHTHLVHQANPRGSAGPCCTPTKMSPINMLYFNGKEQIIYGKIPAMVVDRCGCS
Procedure: as §1

BMP5 = biological target: T4, BMP5 (UniProt P22003 317-454, limits assumed); assay: Biacore SPR
T4 sequence (looked up): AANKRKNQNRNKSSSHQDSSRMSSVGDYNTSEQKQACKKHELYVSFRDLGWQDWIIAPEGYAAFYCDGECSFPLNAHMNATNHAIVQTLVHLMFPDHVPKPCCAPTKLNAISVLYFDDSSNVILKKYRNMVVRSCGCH
Procedure: as §1

BMP9 = biological target: B2; assay: Biacore SPR
Procedure: as §1

BMP7 = biological target: T5, BMP7 (UniProt P18075 293-431); assay: Biacore SPR
T5 sequence (looked up): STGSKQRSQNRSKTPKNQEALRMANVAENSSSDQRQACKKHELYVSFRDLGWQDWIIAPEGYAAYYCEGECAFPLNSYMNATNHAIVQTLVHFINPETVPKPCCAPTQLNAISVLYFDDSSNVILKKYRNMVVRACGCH
Procedure: as §1

activin A = biological target: T6, activin A (UniProt P08476 311-426); assay: Biacore SPR
T6 sequence (looked up): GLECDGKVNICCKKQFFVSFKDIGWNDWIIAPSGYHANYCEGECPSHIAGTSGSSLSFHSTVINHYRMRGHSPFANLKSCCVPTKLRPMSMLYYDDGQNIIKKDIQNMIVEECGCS
Procedure: as §1

BMP10 = biological target: T7, BMP10 (UniProt O95393 317-424); assay: Biacore SPR
T7 sequence (looked up): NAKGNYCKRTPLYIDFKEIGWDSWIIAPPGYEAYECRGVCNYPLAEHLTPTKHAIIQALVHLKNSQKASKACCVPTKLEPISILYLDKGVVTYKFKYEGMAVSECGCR
Procedure: as §1

GDF11 = biological target: T8, GDF11 (UniProt O95390 299-407); assay: Biacore SPR
T8 construct: also called BMP11
T8 sequence (looked up): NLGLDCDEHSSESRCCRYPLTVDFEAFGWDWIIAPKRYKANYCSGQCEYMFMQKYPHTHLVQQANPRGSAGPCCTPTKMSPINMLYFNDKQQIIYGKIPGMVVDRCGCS
Procedure: as §1

GDF5 = biological target: T9, GDF5 (UniProt P43026 382-501); assay: Biacore SPR
T9 construct: also called BMP14
T9 sequence (looked up): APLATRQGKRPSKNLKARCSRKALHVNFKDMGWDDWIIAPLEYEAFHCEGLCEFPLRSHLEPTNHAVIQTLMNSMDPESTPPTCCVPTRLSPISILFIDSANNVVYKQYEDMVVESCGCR
Procedure: as §1

GDF3 = biological target: T10, GDF3 (UniProt Q9NR23 251-364); assay: Biacore SPR
T10 sequence (looked up): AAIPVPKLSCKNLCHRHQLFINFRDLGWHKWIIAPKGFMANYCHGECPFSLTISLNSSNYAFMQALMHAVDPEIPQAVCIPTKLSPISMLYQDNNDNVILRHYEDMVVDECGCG
Procedure: as §1

BMPRII-Fc homodimer [1] = biological target: T11, BMPRII-Fc homodimer (UniProt Q13873 27-150); assay: Biacore SPR
T11 construct: extracellular domain
T11 sequence (looked up): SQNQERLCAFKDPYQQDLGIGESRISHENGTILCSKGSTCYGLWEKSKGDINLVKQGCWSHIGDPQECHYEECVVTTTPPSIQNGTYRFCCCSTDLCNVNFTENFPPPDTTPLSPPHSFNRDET
Procedure: as §1

BMPRII-Fc homodimer [2] = biological target: T11, BMPRII-Fc homodimer; assay: Biacore SPR; remark: listed apart in the source
Procedure: as §1

ActRIIB-Fc homodimer [3] = biological target: T12, ActRIIB-Fc homodimer (UniProt Q13705 19-137); assay: Biacore SPR
T12 construct: extracellular domain; also called ActRIIB homodimer
T12 sequence (looked up): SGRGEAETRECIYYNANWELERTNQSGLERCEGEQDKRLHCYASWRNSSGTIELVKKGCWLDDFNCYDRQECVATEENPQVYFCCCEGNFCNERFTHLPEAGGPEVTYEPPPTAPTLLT
Procedure: as §1

BMPRII-Fc homodimer [4] = biological target: T11, BMPRII-Fc homodimer; assay: Biacore SPR; remark: listed apart in the source
Procedure: A Biacore™-based binding assay was used to compare ligand binding selectivity of the BMPRII-Fc:ALK2-Fc heterodimeric complex described above with that of BMPRII-Fc and ALK2-Fc homodimeric complexes. […] Ligands were injected and allowed to flow over the captured receptor protein.

ActRIIB-Fc homodimer [5] = biological target: T12, ActRIIB-Fc homodimer; assay: Biacore SPR; remark: listed apart in the source
Procedure: as §1

ALK3-Fc homodimer = biological target: T13, ALK3-Fc homodimer (UniProt P36894 24-152); assay: Biacore SPR
T13 construct: extracellular domain
T13 sequence (P36894 24-152): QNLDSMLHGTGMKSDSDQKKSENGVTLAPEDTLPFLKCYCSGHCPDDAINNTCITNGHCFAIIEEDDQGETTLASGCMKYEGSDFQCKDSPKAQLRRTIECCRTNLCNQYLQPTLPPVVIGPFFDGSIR
Procedure: as §1

BMPRII-Fc homodimer [6] = biological target: T11, BMPRII-Fc homodimer; assay: Biacore SPR; remark: listed apart in the source
Procedure: as §1

ActRIIB-Fc homodimer [7] = biological target: T12, ActRIIB-Fc homodimer; assay: Biacore SPR; remark: listed apart in the source
Procedure: as §1

ActRIIB-Fc homodimer [8] = biological target: T12, ActRIIB-Fc homodimer; assay: Biacore SPR; remark: listed apart in the source
Procedure: as §1

ActRIIA-Fc homodimer = biological target: T14, ActRIIA-Fc homodimer (UniProt P27037 20-135); assay: Biacore SPR; kinetics indeterminate (transient)
T14 construct: extracellular domain
T14 sequence (P27037 20-135): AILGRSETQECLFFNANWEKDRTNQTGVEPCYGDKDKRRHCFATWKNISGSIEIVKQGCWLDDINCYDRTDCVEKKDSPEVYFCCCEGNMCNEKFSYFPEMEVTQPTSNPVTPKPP
Procedure: as §1

ActRIIB-Fc homodimer [9] = biological target: T12, ActRIIB-Fc homodimer; assay: Biacore SPR; remark: listed apart in the source
Procedure: as §1

B1: ActRIIB-Fc:ALK2-Fc heterodimer (Fc fusion)
chain 1: GRGEAETRECIYYNANWELERTNQSGLERCEGEQDKRLHCYASWRNSSGTIELVKKGCWLDDFNCYDRQECVATEENPQVYFCCCEGNFCNERFTHLPEAGGPEVTYEPPPTAPTGGGTHTCPPCPAPELLGGPSVFLFPPKPKDTLMISRTPEVTCVVVDVSHEDPEVKFNWYVDGVEVHNAKTKPREEQYNSTYRVVSVLTVLHQDWLNGKEYKCKVSNKALPAPIEKTISKAKGQPREPQVYTLPPSRKEMTKNQVSLTCLVKGFYPSDIAVEWESNGQPENNYKTTPPVLKSDGSFFLYSKLTVDKSRWQQGNVFSCSVMHEALHNHYTQKSLSLSPGK
chain 2: MEDEKPKVNPKLYMCVCEGLSCGNEDHCEGQQCFSSLSINDGFHVYQKGCFQVYEQGKMTCKTPPSPGQAVECCQGDWCNRNITAQLPTKGKSFPGTQNFHLETGGGTHTCPPCPAPELLGGPSVFLFPPKPKDTLMISRTPEVTCVVVDVSHEDPEVKFNWYVDGVEVHNAKTKPREEQYNSTYRVVSVLTVLHQDWLNGKEYKCKVSNKALPAPIEKTISKAKGQPREPQVYTLPPSREEMTKNQVSLTCLVKGFYPSDIAVEWESNGQPENNYDTTPPVLDSDGSFFLYSDLTVDKSRWQQGNVFSCSVMHEALHNHYTQKSLSLSPG
notes: C-terminal Lys optional; also called ActRIIB-Fc:ALK2-Fc heterodimeric complex
Kd (GDF6): > 240000 pM
Kd (activin B): 47 pM
koff (activin B): 0.00015 s⁻¹
kon (activin B): 3.2e+06 M⁻¹ s⁻¹
Kd (GDF8): 360 pM
koff (GDF8): 0.00073 s⁻¹
kon (GDF8): 2.1e+06 M⁻¹ s⁻¹
Kd (BMP5): 1200 pM
koff (BMP5): 0.0014 s⁻¹
kon (BMP5): 1.2e+06 M⁻¹ s⁻¹
Kd (BMP9): 280 pM
koff (BMP9): 0.00089 s⁻¹
kon (BMP9): 3.2e+06 M⁻¹ s⁻¹
Kd (BMP7): 170 pM
koff (BMP7): 0.0026 s⁻¹
kon (BMP7): 1.5e+07 M⁻¹ s⁻¹
Kd (activin A): 76 pM
koff (activin A): 0.0026 s⁻¹
kon (activin A): 3.4e+07 M⁻¹ s⁻¹
Kd (BMP10): 53 pM
koff (BMP10): 0.0029 s⁻¹
kon (BMP10): 5.5e+07 M⁻¹ s⁻¹
Kd (GDF11): 600 pM
koff (GDF11): 0.00093 s⁻¹
kon (GDF11): 1.6e+06 M⁻¹ s⁻¹
Kd (GDF5): 5000 pM
koff (GDF5): 0.0044 s⁻¹
kon (GDF5): 880000 M⁻¹ s⁻¹
Kd (GDF3): 6500 pM
koff (GDF3): 0.012 s⁻¹
kon (GDF3): 1.8e+06 M⁻¹ s⁻¹

B2
Kd (BMPRII-Fc homodimer [1]): 2100 pM
koff (BMPRII-Fc homodimer [1]): 0.026 s⁻¹
kon (BMPRII-Fc homodimer [1]): 1.2e+07 M⁻¹ s⁻¹
Kd (BMPRII-Fc homodimer [2]): 2100 pM
koff (BMPRII-Fc homodimer [2]): 0.026 s⁻¹
kon (BMPRII-Fc homodimer [2]): 1.2e+07 M⁻¹ s⁻¹
Kd (ActRIIB-Fc homodimer [3]): 34 pM
koff (ActRIIB-Fc homodimer [3]): 0.0013 s⁻¹
kon (ActRIIB-Fc homodimer [3]): 3.9e+07 M⁻¹ s⁻¹
Kd (BMPRII-Fc homodimer [4]): 1600 pM
koff (BMPRII-Fc homodimer [4]): 0.073 s⁻¹
kon (BMPRII-Fc homodimer [4]): 4.5e+07 M⁻¹ s⁻¹
Kd (ActRIIB-Fc homodimer [5]): 34 pM
koff (ActRIIB-Fc homodimer [5]): 0.0013 s⁻¹
kon (ActRIIB-Fc homodimer [5]): 3.9e+07 M⁻¹ s⁻¹
binding result (ALK3-Fc homodimer): no binding
Kd (BMPRII-Fc homodimer [6]): 2100 pM
koff (BMPRII-Fc homodimer [6]): 0.026 s⁻¹
kon (BMPRII-Fc homodimer [6]): 1.2e+07 M⁻¹ s⁻¹
Kd (ActRIIB-Fc homodimer [7]): 77 pM
koff (ActRIIB-Fc homodimer [7]): 0.0011 s⁻¹
kon (ActRIIB-Fc homodimer [7]): 1.4e+07 M⁻¹ s⁻¹
Kd (ActRIIB-Fc homodimer [8]): 10 pM
koff (ActRIIB-Fc homodimer [8]): 0.0012 s⁻¹
kon (ActRIIB-Fc homodimer [8]): 1.2e+08 M⁻¹ s⁻¹
Kd (ActRIIA-Fc homodimer): > 10000 pM
Kd (ActRIIB-Fc homodimer [9]): 34 pM
koff (ActRIIB-Fc homodimer [9]): 0.0013 s⁻¹
kon (ActRIIB-Fc homodimer [9]): 3.9e+07 M⁻¹ s⁻¹
